According to patent US20130289100 (The Research Foundation for the State University of New York, published 2013):

What was measured:
Details in all cases: chain copies: 4 (inferred)
[1] = target: T1, GluA2Qflip AMPA receptor subunit (Rattus norvegicus, UniProt P19491-2 P19491-2:22-883); assay: competition; open-channel conformation; homologous competition with radiolabeled AF42
[2] = target: T1, GluA2Qflip AMPA receptor subunit; assay: competition; closed-channel conformation; homologous competition with radiolabeled AF42
[3] = target: T1, GluA2Qflip AMPA receptor subunit; assay: competition; open-channel conformation; homologous competition with radiolabeled AF44
[4] = target: T1, GluA2Qflip AMPA receptor subunit; assay: competition; unliganded closed-channel conformation; homologous competition with radiolabeled AF44

T1 sequence (P19491 other isoform, or with tags, fused parts or gaps): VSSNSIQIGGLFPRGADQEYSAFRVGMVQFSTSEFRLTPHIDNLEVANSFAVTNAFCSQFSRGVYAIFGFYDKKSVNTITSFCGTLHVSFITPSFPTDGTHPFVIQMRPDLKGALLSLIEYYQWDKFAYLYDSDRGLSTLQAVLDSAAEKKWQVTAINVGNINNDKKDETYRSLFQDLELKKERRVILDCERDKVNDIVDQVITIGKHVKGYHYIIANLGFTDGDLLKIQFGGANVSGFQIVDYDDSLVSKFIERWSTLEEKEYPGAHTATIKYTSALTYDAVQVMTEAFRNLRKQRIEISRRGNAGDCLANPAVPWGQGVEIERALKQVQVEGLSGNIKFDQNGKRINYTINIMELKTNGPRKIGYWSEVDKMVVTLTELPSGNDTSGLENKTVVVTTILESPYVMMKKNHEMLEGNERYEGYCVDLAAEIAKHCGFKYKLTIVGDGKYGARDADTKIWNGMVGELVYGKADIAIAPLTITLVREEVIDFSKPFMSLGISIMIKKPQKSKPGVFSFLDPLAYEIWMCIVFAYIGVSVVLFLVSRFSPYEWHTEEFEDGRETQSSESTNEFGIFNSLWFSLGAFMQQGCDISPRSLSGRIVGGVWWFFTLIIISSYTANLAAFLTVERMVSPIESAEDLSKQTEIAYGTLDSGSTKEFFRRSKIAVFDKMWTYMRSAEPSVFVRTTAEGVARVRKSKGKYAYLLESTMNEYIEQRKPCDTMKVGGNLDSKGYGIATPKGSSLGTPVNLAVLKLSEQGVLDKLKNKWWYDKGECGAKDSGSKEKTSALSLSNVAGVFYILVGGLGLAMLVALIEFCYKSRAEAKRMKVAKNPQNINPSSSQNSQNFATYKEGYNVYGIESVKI

Binder	Kd [1] [µM]	Kd [2] [µM]	Kd [3] [µM]	Kd [4] [µM]
GGGAACGGUGCCAGUCCGAAACGGAUCGUUAGAGCAUCAGUA (ssRNA) [AF42]	0.044	0.057	–	–
GGGAGAAUUCAACUGCCACGGAUAAUAGCCAAUACUACAACCGU (ssRNA) [AF44 (A22)]	–	–	0.048	0.044
